Measurements reported in paper PMC3553952 (Nucleic Acids Research, 2012).

Columns and labels:
Pab-aCPSF1 = target: T1, Pab-aCPSF1 (Pyrococcus abyssi, UniProt Q9V0P0 1-648); assay: EMSA
T1 sequence: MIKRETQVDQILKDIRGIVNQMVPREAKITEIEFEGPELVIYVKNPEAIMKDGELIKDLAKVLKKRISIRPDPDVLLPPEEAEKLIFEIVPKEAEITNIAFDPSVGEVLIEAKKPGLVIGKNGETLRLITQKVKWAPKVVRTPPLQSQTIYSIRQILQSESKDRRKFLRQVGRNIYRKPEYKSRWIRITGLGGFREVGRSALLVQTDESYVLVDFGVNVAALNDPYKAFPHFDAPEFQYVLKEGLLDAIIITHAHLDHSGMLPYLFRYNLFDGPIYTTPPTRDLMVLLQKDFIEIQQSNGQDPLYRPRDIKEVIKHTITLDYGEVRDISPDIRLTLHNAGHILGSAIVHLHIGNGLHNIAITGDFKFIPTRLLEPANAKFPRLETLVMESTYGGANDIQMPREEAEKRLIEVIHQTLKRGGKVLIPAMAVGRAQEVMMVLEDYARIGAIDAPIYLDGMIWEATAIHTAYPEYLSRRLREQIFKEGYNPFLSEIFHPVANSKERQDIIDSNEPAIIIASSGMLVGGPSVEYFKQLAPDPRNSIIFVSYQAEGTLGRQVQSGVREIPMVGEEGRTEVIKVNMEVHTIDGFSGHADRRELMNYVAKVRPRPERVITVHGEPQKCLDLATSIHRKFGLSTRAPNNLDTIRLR

SEC = target: the molecule itself; assay: SEC

B1: sR47Mut21U (structured_RNA)
RNA: GAUGAAGAUGAUGAGCUCGGUAGGUCCUGAGGAGUGAUGAGGAUCUUGAGUGCUGAUUCACCUU
B1: binds (Pab-aCPSF1).

B2: Pab-aCPSF1ΔKH (variant missing the first 179 residues of Pab-aCPSF1) (domain or fragment, Pyrococcus abyssi, UniProt Q9V0P0 180-648, looked up)
chain: EYKSRWIRITGLGGFREVGRSALLVQTDESYVLVDFGVNVAALNDPYKAFPHFDAPEFQYVLKEGLLDAIIITHAHLDHSGMLPYLFRYNLFDGPIYTTPPTRDLMVLLQKDFIEIQQSNGQDPLYRPRDIKEVIKHTITLDYGEVRDISPDIRLTLHNAGHILGSAIVHLHIGNGLHNIAITGDFKFIPTRLLEPANAKFPRLETLVMESTYGGANDIQMPREEAEKRLIEVIHQTLKRGGKVLIPAMAVGRAQEVMMVLEDYARIGAIDAPIYLDGMIWEATAIHTAYPEYLSRRLREQIFKEGYNPFLSEIFHPVANSKERQDIIDSNEPAIIIASSGMLVGGPSVEYFKQLAPDPRNSIIFVSYQAEGTLGRQVQSGVREIPMVGEEGRTEVIKVNMEVHTIDGFSGHADRRELMNYVAKVRPRPERVITVHGEPQKCLDLATSIHRKFGLSTRAPNNLDTIRLR
For B2, the “stoichiometry N” value (SEC) was 2.

B3: sR47MutCG (structured_RNA)
RNA: GAUGAAGAUGAUGAGCUCGGCAGGUCCUGAGGAGUGAUGAGGAUCUGCUGAGUGCUGAUUCACCUU
B3: binds (Pab-aCPSF1).
